In patent US20090175880A1 (published 2009):

Key:
[1] = target: soluble fusion protein comprising a DEC-205 extracellular domain (comprising all ten lectin-binding domains) fused with an antibody Fc domain (human) (UniProt O60449); test: SPR (Biacore 2000), DEC-205 fusion protein amine-coupled to CM5 chip, antibody flowed at 1.25-200 nM, 1:1 Langmuir fit, mean of two series
[2] = target: T1, soluble fusion protein comprising a DEC-205 extracellular domain (comprising all ten lectin-binding domains) … (human, UniProt O60449 28-1666); test: as above
T1 construct: not shown: antibody Fc domain
T1 sequence (O60449 28-1666 K1321N/Y1391H): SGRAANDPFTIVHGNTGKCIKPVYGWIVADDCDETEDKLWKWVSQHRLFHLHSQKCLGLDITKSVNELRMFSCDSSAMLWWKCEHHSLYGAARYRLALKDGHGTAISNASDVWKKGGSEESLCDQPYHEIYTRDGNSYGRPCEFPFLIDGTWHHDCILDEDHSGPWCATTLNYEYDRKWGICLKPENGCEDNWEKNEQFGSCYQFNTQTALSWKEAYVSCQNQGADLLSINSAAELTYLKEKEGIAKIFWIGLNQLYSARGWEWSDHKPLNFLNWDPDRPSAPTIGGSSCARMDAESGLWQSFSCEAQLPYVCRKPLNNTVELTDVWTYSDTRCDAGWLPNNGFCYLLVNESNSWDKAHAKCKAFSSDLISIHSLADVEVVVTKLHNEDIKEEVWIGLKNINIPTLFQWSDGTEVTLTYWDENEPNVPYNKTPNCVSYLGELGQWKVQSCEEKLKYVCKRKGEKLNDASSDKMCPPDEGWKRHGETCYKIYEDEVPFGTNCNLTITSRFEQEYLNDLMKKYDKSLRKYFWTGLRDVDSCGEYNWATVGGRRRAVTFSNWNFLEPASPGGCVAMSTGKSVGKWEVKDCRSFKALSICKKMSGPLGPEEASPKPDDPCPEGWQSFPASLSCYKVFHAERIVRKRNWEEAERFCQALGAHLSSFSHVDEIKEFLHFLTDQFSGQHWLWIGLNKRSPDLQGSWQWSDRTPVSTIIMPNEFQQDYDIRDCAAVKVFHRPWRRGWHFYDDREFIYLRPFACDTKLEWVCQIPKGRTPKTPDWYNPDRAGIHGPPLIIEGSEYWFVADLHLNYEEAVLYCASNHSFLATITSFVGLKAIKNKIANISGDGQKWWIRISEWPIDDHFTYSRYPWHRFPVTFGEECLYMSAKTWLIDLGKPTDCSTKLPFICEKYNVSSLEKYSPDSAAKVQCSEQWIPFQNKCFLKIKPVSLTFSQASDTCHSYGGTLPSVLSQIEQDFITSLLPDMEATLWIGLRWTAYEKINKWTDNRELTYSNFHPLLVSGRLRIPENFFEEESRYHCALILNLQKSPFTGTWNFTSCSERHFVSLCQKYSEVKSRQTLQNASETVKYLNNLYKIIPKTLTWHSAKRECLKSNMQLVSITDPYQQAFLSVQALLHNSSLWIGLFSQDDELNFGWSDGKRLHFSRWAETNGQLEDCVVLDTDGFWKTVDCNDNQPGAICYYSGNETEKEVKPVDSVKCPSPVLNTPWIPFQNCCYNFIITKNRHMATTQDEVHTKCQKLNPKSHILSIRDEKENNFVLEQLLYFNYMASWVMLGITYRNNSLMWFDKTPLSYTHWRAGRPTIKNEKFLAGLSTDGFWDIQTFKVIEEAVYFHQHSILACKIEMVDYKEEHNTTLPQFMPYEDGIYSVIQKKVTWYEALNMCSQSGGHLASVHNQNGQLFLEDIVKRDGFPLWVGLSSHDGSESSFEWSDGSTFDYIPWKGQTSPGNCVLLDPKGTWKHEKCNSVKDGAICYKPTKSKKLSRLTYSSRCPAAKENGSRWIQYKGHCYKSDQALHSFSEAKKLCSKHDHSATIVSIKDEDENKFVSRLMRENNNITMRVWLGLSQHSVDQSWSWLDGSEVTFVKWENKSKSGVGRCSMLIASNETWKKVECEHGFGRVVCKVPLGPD
From the text: Low levels of ligand were immobilised to limit any effects of mass transport of analyte on kinetic parameters, such that the RMAX observed was in the order of 200 RU.
The antigen-antibody association and dissociation kinetics were followed for approximately 300 to 600 seconds in each case.
Biacore's kinetics wizard was used in each case to derive kinetic parameters from the concentration series of analyte diluted in HBS-NP running buffer. The association and dissociation curves were fitted to a 1:1 Langmuir binding model using Biacore™ kinetics wizard software (Biacore AB) according to the manufacturer's guidelines. For each antibody, the figures shown are the mean of two separate series of experiments, using separately prepared sensor chips in each case, (where ka=rate constant of association, kd=rate constant of dissociation, KD=dissociation equilibrium constant (measure of affinity), KA=association equilibrium constant, Rmax=maximum SPR response signal).

[3] = target: human DEC-205 expressed on the cell surface (human, UniProt O60449 28-1722); test: flow cytometry on CHO-S cells expressing human DEC-205, saturating antibody, PE anti-human IgG Fc
Sequence of human DEC-205 expressed on the cell surface (O60449 28-1722 K1321N/Y1391H limits assumed): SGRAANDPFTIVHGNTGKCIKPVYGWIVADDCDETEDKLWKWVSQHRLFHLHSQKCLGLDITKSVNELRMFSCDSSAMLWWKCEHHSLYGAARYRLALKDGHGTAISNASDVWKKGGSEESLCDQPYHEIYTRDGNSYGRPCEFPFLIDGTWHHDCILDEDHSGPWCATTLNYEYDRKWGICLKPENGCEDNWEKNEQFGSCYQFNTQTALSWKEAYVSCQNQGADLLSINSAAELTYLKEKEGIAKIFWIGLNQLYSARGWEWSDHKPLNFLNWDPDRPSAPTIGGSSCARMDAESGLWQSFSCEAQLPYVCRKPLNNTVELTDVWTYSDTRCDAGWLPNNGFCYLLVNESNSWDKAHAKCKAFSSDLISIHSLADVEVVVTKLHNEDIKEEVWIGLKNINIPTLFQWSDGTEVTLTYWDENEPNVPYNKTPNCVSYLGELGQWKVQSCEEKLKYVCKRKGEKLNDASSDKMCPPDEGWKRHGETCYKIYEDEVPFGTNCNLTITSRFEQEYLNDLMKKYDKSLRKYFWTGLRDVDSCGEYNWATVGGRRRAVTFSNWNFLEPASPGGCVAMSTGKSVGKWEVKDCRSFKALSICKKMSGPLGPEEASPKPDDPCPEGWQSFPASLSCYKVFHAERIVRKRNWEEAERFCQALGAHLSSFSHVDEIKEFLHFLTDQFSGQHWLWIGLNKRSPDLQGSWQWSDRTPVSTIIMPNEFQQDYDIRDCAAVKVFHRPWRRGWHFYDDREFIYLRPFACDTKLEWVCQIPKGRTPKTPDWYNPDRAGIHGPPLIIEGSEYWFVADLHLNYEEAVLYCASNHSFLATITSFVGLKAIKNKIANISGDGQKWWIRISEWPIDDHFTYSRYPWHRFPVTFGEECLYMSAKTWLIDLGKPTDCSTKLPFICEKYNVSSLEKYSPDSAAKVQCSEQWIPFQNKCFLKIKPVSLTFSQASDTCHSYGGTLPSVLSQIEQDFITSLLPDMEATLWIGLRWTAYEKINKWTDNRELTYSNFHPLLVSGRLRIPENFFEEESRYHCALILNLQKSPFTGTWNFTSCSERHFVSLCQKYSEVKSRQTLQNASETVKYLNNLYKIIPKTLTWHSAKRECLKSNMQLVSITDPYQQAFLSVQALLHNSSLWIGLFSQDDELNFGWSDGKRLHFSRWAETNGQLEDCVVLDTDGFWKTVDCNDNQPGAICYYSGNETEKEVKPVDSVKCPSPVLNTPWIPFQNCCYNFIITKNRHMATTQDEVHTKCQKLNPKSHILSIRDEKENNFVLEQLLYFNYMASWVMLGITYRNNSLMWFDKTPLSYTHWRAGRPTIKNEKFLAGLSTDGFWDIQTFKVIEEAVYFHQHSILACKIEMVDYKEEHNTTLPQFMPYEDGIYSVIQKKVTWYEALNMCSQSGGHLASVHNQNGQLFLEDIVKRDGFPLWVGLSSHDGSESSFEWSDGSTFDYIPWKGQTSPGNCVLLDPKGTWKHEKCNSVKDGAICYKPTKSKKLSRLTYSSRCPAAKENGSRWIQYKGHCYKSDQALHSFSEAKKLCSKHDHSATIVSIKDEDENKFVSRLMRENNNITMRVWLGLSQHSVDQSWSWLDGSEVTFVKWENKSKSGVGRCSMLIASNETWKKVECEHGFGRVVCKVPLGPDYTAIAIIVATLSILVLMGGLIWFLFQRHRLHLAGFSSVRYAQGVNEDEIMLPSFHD

[4] = target: T1, soluble fusion protein comprising a …; test: ELISA, plates coated with soluble DEC-205/Fc fusion protein, saturating antibody, AP anti-human IgG Fc, OD 405-650

Sequence of soluble fusion protein comprising a DEC-205 extracellular domain (comprising all ten lectin-binding domains) fused with an antibody Fc domain (human) (O60449 28-1666 K1321N/Y1391H): as the sequence (O60449 28-1666 K1321N/Y1391H) above

B1: 2D3-1F5-2A9 (antibody, part only; not given: light chain, V domains shown, part only)
VH: EVQLVQSGGGLVHPGGSLRLSCAGSGFTFSNYAMHWVRQAPGKGLEWVSTIGTGGGTPYADSVKGRFTISRDNAKNSLYLQMNSLRAEDMAVYYCALSAFDVWGQGTMVTVSSASTKGPSVFPLA
B1 showed a Ka [1] of 1.5e+10 M⁻¹, a Kd [1] of 0.068 nM and a koff [1] of 2.2e-05 s⁻¹. For the same binder, the kon [1] was 330000 M⁻¹ s⁻¹.

B2: 3G9-2D2 (antibody, V domains shown)
VH: QVQLVESGGGVVQPGRSLRLSCAASGFTFSNYGMYWVRQAPGKGLEWVAVIWYDGSNKYYADSVKGRFTISRDNSKNTLYLQMNSLRAEDTAVYYCARDLWGWYFDYWGQGTLVTVSS
VL: EIVLTQSPATLSLSPGERATLSCRASQSVSSYLAWYQQKPGQAPRLLIYDASNRATGIPARFSGSGSGTDFTLTISSLEPEDFAVYYCQQRRNWPLTFGGGTKVEIK
notes: Human IgG (kappa) from a hybridoma, protein A purified; also called mAb #8; HuMab 3G9-2D2
B2 showed a Ka [2] of 4.7e+09 M⁻¹, a Kd [2] of 0.24 nM and a koff [2] of 0.00019 s⁻¹. The kon [2] was 900000 M⁻¹ s⁻¹.

B3: 3C7-3A3 (antibody, V domains shown)
VH: QVQLVESGGGVVQPGRSLRLSCAASGFTFSSYNMHWVRQAPGKGLEWVAFIWYDGSNKYYGDSVKGRFTISRDNSKNTLYLQMNSLRAEDTAVYYCAREELGIGWYFDLWGRGTLVTVSS
VL: EIVLTQSPATLSLSPGERATLSCRASQSVSSYLAWYQQKPGQAPRLLIYDASNRATGIPARFSGSGSGTDFTLTISSLEPEDFAVYYCQQRRTFGQGTKVEIK
notes: Human IgG (kappa) from a hybridoma, protein A purified; also called mAb #3; HuMab 3C7-3A3
In the case of B3, the Ka [2] is reported as 5.2e+08 M⁻¹, the Kd [2] is reported as 5.6 nM and the koff [2] is reported as 0.00076 s⁻¹. For the same binder, the kon [2] was 170000 M⁻¹ s⁻¹.

B4: 5A8-1F1 (antibody, V domains shown)
VH: QVQLVESGGGVVQPGRSLRLSCAASGFTFSTYGMHWVRQAPGKGLEWVAIIWYDGGNKYYADSVKGRFTISRDNSKNTLYLQMNSLRAEDTAVYYCARDFYWYFDLWGRGTLVTVSS
VL: B3 VL
notes: Human IgG (kappa) from a hybridoma, protein A purified; also called mAb #2; HuMab 5A8-1F1
B4 showed a Ka [2] of 2.1e+09 M⁻¹, a Kd [2] of 1.5 nM and a koff [2] of 0.0002 s⁻¹. The kon [2] was 360000 M⁻¹ s⁻¹.

B5: 3D6-2F4 (antibody, V domains shown)
VH: QVQLVESGGGVVQPGRSLRLSCAASGFIFSIYGMHWVRQAPGKGLEWVAVIWYDGSNKYYADSVKGRFTISRDNSKNTLYLQMNSLRAEDTAVYYCARAPHFDYWGQGTLVTVSS
VL: DIQMTQSPSSLSASVGDRVTITCRASQGISSWLAWYQQKPEKAPKSLIYAASSLQSGVPSRFSGSGSGTDFTLTISSLQPEDFATYYCQQYNSYPYTFGQGTKLEIK
notes: Human IgG (kappa) from a hybridoma, protein A purified; also called mAb #5; HuMab 3D6-2F4
B5 was tested, and the Ka [2] was 1.5e+10 M⁻¹, the Kd [2] was 0.08 nM and the koff [2] was 0.00012 s⁻¹. For the same binder, the kon [2] was 1.8e+06 M⁻¹ s⁻¹.

B6: 3D6-4C8 (antibody, V domains shown)
VH: B5 VH
VL: AIQLTQSPSSLSASVGDRVTITCRASQGISSALAWYQQKPGKAPKLLIYDASSLESGVPSRFSGSGSGTDFTLTISSLQPEDFATYYCQQFNSYPLTFGGGTKVEIK
notes: Human IgG (kappa) from a hybridoma, protein A purified; also called HuMab 3D6-4C8
B6: binds [3]; binds [4].
